These are literature values, as cited in patent US20230301999A1, “METHODS OF TREATING GOUT” (Horizon Therapeutics USA, Inc., priority 2020, published 2023).

Like-named read-outs stand apart in the source and are kept apart here.

Data set [1] has as its system patients with gout. Conditions: patients treated with allopurinol.
The subject of data set [2] is vacuolated cells. Conditions: no associated clinical manifestations.
The conditions of data set [3]: rat; during 7 days after injection.
Data set [4] has as its system patients receiving pegloticase.
For data set [5], the system named is subjects with refractory gout. The conditions noted are these: doses of 4 to 12 mg; from 11.1±0.6 mg/dL.
For data set [6] the following is noted: 2 hemodialysis sessions; pre- and post-dialyzer samples.
The test system of data set [7] is patients with refractory chronic gout. The conditions noted are these: Phase 2 program.
For data set [8] the test system is unchanged. The conditions noted are these: bi-weekly or every 4 weeks for up to 30 months.
Data set [9] relates to subjects with gout. Conditions: Phase 2, 30-min administration in the majority.
The subject of data set [10] is hyperuricemic patients with symptomatic gout.
The conditions of data set [11]: single IV infusions of 0.5 mg to 12 mg; 23 patients with symptomatic gout.

Turning to `Oc1ncnc2[nH]ncc12` [allopurinol], the “patients developing allergic reactions” value in data set [1] is given as “Approximately 2%”.
On to pegloticase, for which the “finding in chronic toxicology studies” value in [2] is “dose-dependent increase in vacuolated cells”. Besides, the “dose excreted in the urine” value in data set [3] is “Approximately 70%”. The “patients with antibody titer exceeding 1:2430 maintaining response” value in data set [4] (7 of 65, another study) is 10.8%. Besides, in [4] (31 of 52), the “patients with titers exceeding 1:2430 developing IRs” value is 60%. Besides, the “patients never having antibody titer above 1:2430 maintaining response” value in [4] (58/65, another study) is given as 89.2%. In data set [4] (second study), the “participants with high titers developing IR” value is 60%. Moreover, the “pUAc after fall, mean±SD” value in data set [5] is 1.0±0.5 mg/dL. In [6], the removal by dialysis entry is recorded as “not removed by the dialysis process”. Also, in data set [7], the dose-response plateau dose was 12 mg; the minimally effective dose is given as 4 mg; the “safe and optimally effective dose” value is 8 mg. For the same compound, the long-term safety result in data set [8] is reported as “No new safety signals were observed”. The “stability diluted in infusion bags” value (2° C. to 8° C.) was 4 h. For the same compound, the “stability diluted in infusion bags” value (room temperature (20° C. to 25° C.)) is 4 h. In addition, the anaphylaxis entry in [9] is on record as “no subjects experienced anaphylaxis”. The “subjects experiencing an IR” value in data set [9] (no MTX, majority without IR prophylaxis) is reported as 44%. Also, the “subjects with infusion reactions (IRs)” value in data set [10] (8 mg every 2 weeks, Phase 3, 120-min infusion, IR prophylaxis, no pre-infusion uric acid monitoring) is 26%. The “subjects with infusion-related reactions” value in [10] (8 mg every 4 weeks, Phase 3) is recorded as 40%. Also, the “patients maintaining therapeutic response” value in data set [10] (6 months, pegloticase alone, previously reported) is 42%. For the same compound, in data set [10] (20/21 patients), the “patients with IRs in whom loss of response (SUA≥6 mg/dL) preceded the first IR” value is on record as 95%. Also, the subjects with anaphylaxis in [10] (Phase 3, 120-min infusion, IR prophylaxis) is on record as 5%. In addition, the IR rate result in [10] (clinical practice/studies with a uric acid monitoring protocol) is recorded as “about 8%”. For the same compound, the “maximum serum concentrations vs dose” value in [11] is on record as “increased in proportion to the dose administered”.
